Reference: US12617870B2, “Methods of reversing ticagrelor activity” (SFJ Pharmaceuticals X, LTD., priority 2018, dated 2026)
“And” between values parts separate entries of the source, which are not always exact repeats. Equal values may be shown once. “Also recorded” adds a separate entry of the source.

Experiments:
[1] = Phase 1 healthy volunteer study: safety, treatment-emergent adverse events; assay type: in vivo, human
From the text: Safety Assessments: Safety and tolerability will be assessed by monitoring and recording of AEs, clinical laboratory test results (hematology, coagulation, serum chemistry, and urinalysis), vital sign measurements (systolic and diastolic blood pressures, oral body temperature, respiratory rate, and heart rate), 12-lead ECG results, cardiac telemetry monitoring, immunogenicity, and physical examination findings.
(§1) The primary safety outcome was the frequency and severity of treatment emergent adverse events (AEs) associated with PB2452 with or without oral ticagrelor pretreatment. Clinical laboratory test results, vital sign measurements, 12-lead ECG and continuous telemetry results, and physical examination findings were also assessed at multiple timepoints from screening to the end of the 28-day safety follow-up period. Immunogenicity was assessed before and at 7 and 28 days after PB2452 administration.

[2] = tested on: platelet aggregation (ticagrelor antiplatelet activity); assay type: in vivo, human
Procedure: Platelet function was assessed using light transmission aggregometry (LTA), VerifyNow, and vasodilator stimulated phosphoprotein (VASP) assays before and after 48 hours of ticagrelor administration […] Cohorts 7 to 10 received an 18-gram fixed dose of PB2452 via various infusion regimens or placebo. Infusions of PB2452 in these cohorts were initiated 2 hours after the last ticagrelor pretreatment dose to coincide with the peak concentration of ticagrelor. (Gurbel (2009). Subjects in all cohorts were randomized in a 3:1 ratio to receive PB2452 or placebo. The primary efficacy outcome was the effectiveness of PB2452 in reversing the antiplatelet effect of ticagrelor by analyzing platelet aggregation using light transmission aggregometry at multiple time points before and after PB2452 or placebo administration in ticagrelor pretreated subjects. Secondary efficacy outcomes were the effectiveness of ticagrelor reversal assessed using VerifyNow and the vasodilator stimulated phosphoprotein phosphorylation immunoassay (VASP). The sample size of 64 was based on clinical and practical considerations and not on a formal statistical power calculation. The sample size was considered sufficient to adequately assess the safety, efficacy, and pharmacokinetic profiles of PB2452 and the pharmacokinetic and pharmacodynamic profiles of ticagrelor. Reversal of antiplatelet effect was evaluated by comparing the mean percent of baseline platelet aggregation between PB2452 and placebo using Wilcoxon rank-sum test. Multiplicity was adjusted using the Bonferroni method. Correlations between each pair of the platelet function tests were evaluated using Pearson's correlation and Spearman's rank correlation coefficient. Mean data from subjects receiving placebo were pooled across cohorts for all presentations. Categorical variables are summarized by their frequencies and percentages, and continuous variables are presented with the number of subjects with non-missing data, mean, standard deviation, median, minimum, and maximum. Descriptive statistics are presented for each cohort, and pooled placebo and PB2452 data. For pharmacodynamic data, platelet aggregation results were compared between each cohort and pooled placebo data (cohorts 4 to 6 and cohort 7 to 10 were pooled separately). All analyses were performed with SAS software, version 9.4 (SAS Institute).

[3] = tested on: platelet reactivity (VerifyNow P2Y12); assay: Phase 1 healthy volunteer study: VerifyNow P2Y12 platelet reactivity (PRU); assay type: in vivo, human; conditions: sustained for 24 hours
From the text: Secondary Objectives: 1) To determine the pharmacokinetics of ascending doses of IV PB2452 in the presence and absence of ticagrelor; 2) To determine the pharmacokinetics of ticagrelor and its active metabolite TAM in the presence and absence of PB2452; 3) To assess the effectiveness of a single IV PB2452 dose in reversing ticagrelor antiplatelet activity by measuring P2Y12 reaction units (PRU) with VerifyNow™ P2Y12 assay and platelet reactivity index (PRI) with vasodilator stimulated phosphoprotein (VASP) phosphorylation assay by enzyme-linked immunosorbent assay (ELISA); 3) To evaluate the pharmacokinetics and pharmacodynamics of restarting a single dose of oral ticagrelor 24 hours after IV PB2452 administration if a sixth dose of ticagrelor is given; 4) To evaluate the immunogenicity potential of PB2452 […]
(§2) The primary efficacy outcome was the effectiveness of PB2452 in reversing the antiplatelet effect of ticagrelor by analyzing platelet aggregation using light transmission aggregometry at multiple time points before and after PB2452 or placebo administration in ticagrelor pretreated subjects. Secondary efficacy outcomes were the effectiveness of ticagrelor reversal assessed using VerifyNow and the vasodilator stimulated phosphoprotein phosphorylation immunoassay (VASP).

P2Y12 receptor signaling = assay: Phase 1 healthy volunteer study: VASP phosphorylation ELISA (PRI); conditions: human, in vivo
From the text: Secondary Objectives: 1) To determine the pharmacokinetics of ascending doses of IV PB2452 in the presence and absence of ticagrelor; 2) To determine the pharmacokinetics of ticagrelor and its active metabolite TAM in the presence and absence of PB2452; 3) To assess the effectiveness of a single IV PB2452 dose in reversing ticagrelor antiplatelet activity by measuring P2Y12 reaction units (PRU) with VerifyNow™ P2Y12 assay and platelet reactivity index (PRI) with vasodilator stimulated phosphoprotein (VASP) phosphorylation assay by enzyme-linked immunosorbent assay (ELISA); 3) To evaluate the pharmacokinetics and pharmacodynamics of restarting a single dose of oral ticagrelor 24 hours after IV PB2452 administration if a sixth dose of ticagrelor is given; 4) To evaluate the immunogenicity potential of PB2452
VASP by ELISA: 1) PRU at each assessment point; 2) Percent of baseline in PRU; 3) Maximal PRU; 4) Time to maximal PRU; 5) Time to 60%, 80%, 90% of baseline PRU
as §2

[4] = Phase 1 healthy volunteer study: immunogenicity (anti-drug antibodies); assay type: in vivo, human
Procedure: as §1
Other secondary outcomes included assessment of the PB2452 and ticagrelor pharmacokinetic profiles and evaluation of PB2452 immunogenicity at day 7 and 28 post-infusion.

[5] = Phase 1 healthy volunteer study: pharmacokinetics of PB2452; assay type: in vivo, human
Procedure: Plasma Collection: Blood samples for PK analysis of PB2452 in plasma will be collected from all subjects at the following time points: before dosing (within 10 minutes prior to the initiation of study drug infusion and up to 28 days after the initiation of study drug infusion. Specific collection times for each cohort are listed in the table below: […]

[6] = of the 48 subjects given PB2452

B1: PB2452: recombinant human IgG1λ monoclonal Fab antibody fragment that binds specifically to ticagrelor and TAM (antibody, listed as Homo sapiens)
heavy: QVQLQESGAEVKKPGSSVRVSCKASGGTFDSYSIHWVRQAPGQGLEWMGGIIPAFGTLSSAQDFQARVTISADKSTSTAYMELSGLRSEDTAVYYCARGSFDYYFWSASHPPNDALAIWGQGTLVTVSSASTKGPSVFPLAPSSKSTSGGTAALGCLVKDYFPEPVTVSWNSGALTSGVHTFPAVLQSSGLYSLSSVVTVPSSSLGTQTYICNVNHKPSNTKVDKRVEPKSCDK
light: QSVVTQPPSVSAAPGQKVTISCSGSNSDIGNNYVSWYQQLPGTAPKLLIYDNNKRPSGIPDRFSGSKSGTSATLAITGLQAGDEADYYCGTWLYDRAVGLFGGGTKVTVLGQPKAAPSVTLFPPSSEELQANKATLVCLISDFYPGAVTVAWKADSSPVKAGVETTTPSKQSNNKYAASSYLSLTPEQWKSHRSYSCQVTHEGSTVEKTVAPTECS
modifications: PB2452 VH with CH1; PB2452 VL with CL
overall safety and tolerability ([1]; 0.1 to 18 g IV, healthy subjects): safe and well-tolerated | Number of Subjects with at Least 1 TEAE ([1]; All PB2452 (N = 48)): 17 (35.4%) n (%) and 17 (35.4) n (%) | Total Number of TEAEs ([1]; All PB2452 (N = 48)): 27 | Abdominal pain ([1]; TEAE, All PB2452 (N = 48)): 1 (2.1) n (%) | Acute respiratory failure ([1]; TEAE, All PB2452 (N = 48)): 1 (2.1) n (%) | Alcohol poisoning ([1]; TEAE, All PB2452 (N = 48)): 1 (2.1) n (%) | Blood urine present ([1]; TEAE, All PB2452 (N = 48)): 1 (2.1) n (%) | Conjunctivitis ([1]; TEAE, All PB2452 (N = 48)): 1 (2.1) n (%) | Contusion ([1]; TEAE, All PB2452 (N = 48)): 0 n (%) | Dizziness ([1]; TEAE, All PB2452 (N = 48)): 1 (2.1) n (%) | Eyelid irritation ([1]; TEAE, All PB2452 (N = 48)): 0 n (%) | Gastroenteritis ([1]; TEAE, All PB2452 (N = 48)): 1 (2.1) n (%) | Hematuria ([1]; TEAE, All PB2452 (N = 48)): 1 (2.1) n (%) | Infusion site bruising ([1]; TEAE, All PB2452 (N = 48)): 4 (8.3) n (%) | Infusion site extravasation ([1]; TEAE, All PB2452 (N = 48)): 2 (4.2) n (%) | Infusion site reaction ([1]; TEAE, All PB2452 (N = 48)): 1 (2.1) n (%) | Medical device site reaction ([1]; TEAE, All PB2452 (N = 48)): 3 (6.3) n (%) | Musculoskeletal chest pain ([1]; TEAE, All PB2452 (N = 48)): 0 n (%) | Nasopharyngitis ([1]; TEAE, All PB2452 (N = 48)): 1 (2.1) n (%) | Oropharyngeal pain ([1]; TEAE, All PB2452 (N = 48)): 1 (2.1) n (%) | Pharyngitis streptococcal ([1]; TEAE, All PB2452 (N = 48)): 1 (2.1) n (%) | Pneumonia aspiration ([1]; TEAE, All PB2452 (N = 48)): 1 (2.1) n (%) | Skin abrasion ([1]; TEAE, All PB2452 (N = 48)): 1 (2.1) n (%) | Upper limb fracture ([1]; TEAE, All PB2452 (N = 48)): 1 (2.1) n (%) | Vessel puncture site bruise ([1]; TEAE, All PB2452 (N = 48)): 2 (4.2) n (%) | deaths or adverse events leading to study drug discontinuation ([1]; human, in vivo): no deaths or adverse events leading to study drug discontinuation | drug-related adverse events ([1]; human, in vivo): no drug-related adverse events; also recorded: None of the adverse events was considered related to study drug | study-drug related serious adverse events, dose-limiting toxicities, infusion-related reactions ([1]; human, in vivo): no study-drug related serious adverse events, dose-limiting toxicities, or infusion-related reactions; also recorded: no serious adverse events or infusion reactions associated with PB2452 | time to complete restoration of platelet function ([2]; 3 g or 9 g PB2452 IV over 30 minutes): ≤ 30 min | reversal sustained for ([2]; 10-minute IV bolus followed by 16-hour infusion, multiple assays): over 20 hours | onset of reversal ([2]; 10-minute IV bolus followed by 16-hour infusion, multiple assays, vs placebo P<0.0001): ≤ 5 min | time to significantly increased mean platelet aggregation ([2]; Cohort 7, 18 g: 3.0 g bolus followed by 8 hour infusion): ≤ 2 h | time to reversal after initiation of the infusion ([2]; Cohorts 8 to 10, 18 g: 6.0 g bolus followed by infusions for 12 or 16 hours): ≤ 5 min | mean platelet aggregation restored, relative to pre-ticagrelor baseline ([2]; LTA, all post-treatment time points up to 20 hours): ≥ 80 % of baseline | rebound in platelet activity after drug cessation ([2]; human, in vivo): no evidence of rebound | mean VerifyNow platelet reactivity [3]: ≥ 180 PRU | VASP PRI restored, relative to baseline (P2Y12 receptor signaling): ~100 % of baseline | duration of restored VASP PRI (P2Y12 receptor signaling): 20 to 24 h | time to restoration of VASP PRI (P2Y12 receptor signaling): ≤ 5 min | effect of antibody titers on PB2452 safety or efficacy ([4]; human, in vivo): no observed effect | subjects anti-drug antibody positive post-dosing [4, 6]: 6 (12.5%) subjects (%) | subjects with detectable anti-drug antibodies [4, 6]: 21 (43.8%) subjects (%) | subjects with pre-existing (pre-dose) antibodies [4, 6]: 15 (31.3%) subjects (%) | PB2452 exposure extended for ([5]; 18 gram dose level with 8- to 16-hour infusions): 12 to 24 h | estimated distribution half-life ([5]; IV, healthy subjects): 0.86 h | estimated terminal half-life ([5]; IV, healthy subjects): 6.9 h | volume of distribution ([5]; IV, healthy subjects): approximately 2.9 L | dose dependence of mean exposure ([5]; dose range of 0.1 to 9.0 grams): dose-linear increases in mean exposure
